In the nanobody polyreactivity screen of Harvey et al. (2022):

Assay: yeast display, Sf9 membrane polyspecificity reagent, FACS + sequencing; frameworks hold sequencing errors
Procedure, shortened: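 A synthetic nanobody library was expressed on Saccharomyces cerevisiae BJ5465 by galactose induction for 36–48 hours. The library was stained for 1 hour at 4 °C with 10% biotinylated, detergent-solubilized Sf9 membrane reagent and enriched with streptavidin microbeads before FACS. Low and high (top ~1%) gates were set on anti-HA fluorescence for expression and streptavidin fluorescence for reagent binding, and each polyreactivity label reflects the gate of origin.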

Row | Sequence | polyreactivity (PSR sort gate)
1 | QVQLVESGGGLVQAGGSLRLSCAASGSTFYFNAMGWYRQAPGKARELVAAIDWSGGSTYYADSVKGRFTISRDNAKNTVYLQMNSLKPEDTAVYYCAAPYHYYGNTVGYADYDYWGQGTQVTVSS | low polyreactivity
2 | QVQLVESGGGLVQAGGSLRLSCAASGSTFGYNAMGWYRQATGKERELVARITSSGGSTYYADSVKGRFTISRDNAKNTVYLQMNILKPEDTAVYYCAAGYLSGNYARYGYWGQGTQVTVSS | high polyreactivity
3 | QVQLVESGGGLVQAGGSLRLSCAASGSTFQYYAMGWSRQAPGKERELVAAISYGGSRTYYADSVKGRFTISRDNAKNTVYLQMNSLKPEDTAVYYCAKEKYRALAPYYYWGQGTQVTVSS | high polyreactivity
4 | QVQLVESGGGLLQAGGSLRVSCAASGRTFLRYAMGWSIKAPGKERELVAGIDSSGGNTYYADSVKGRFTISRDTAKKYVYLQINSLKPEDTAVYYCAPRRSCKYRGGYYWGQGTQVTVSS | high polyreactivity
5 | QDQLVESGGGLVQAGGSHRLTCAATGITLDNYVMGWYRQAPRTERELVAAISRTSGRTYYADSVKGRFTISRDNAKNTVYLQMHSLKPEDTGVYYCNARSRGRASGYDYWGHGTQVTVSS | high polyreactivity
6 | QVQLVESGGGLVQAGGSLRLSCAASGRIFSYYAMGWYRQAPGKDRELVAAISRSGGRTYYADSVKGRFTISRDNAKNTVYLQMNSLNPEDTAVYYCAATFSRGYDYWGQGTQVTVSS | high polyreactivity
7 | QVQLVESGGGLVQAGGSLRLSCAASGIIFDWYAMGWYRQAPGKERELVAAISYSGGTTYYADSVKGRFTISRDNAKNTVYFQMNSLTPEDTAVYYCAARYEGAAANYVEYGYWGLGTQVTVSS | low polyreactivity
8 | QVQLVESGGGLVQAGGSLRLSCAASGSIFFFYVMGWYRQAPGKERELVAAINNGGSTNYADSVKGRFTISRDNAKNTVYLQMNSLKPEDTAVYYCAADSITSKNQGLDYDYWGQGTQVTVSS | low polyreactivity
9 | QVQLVESGGGLVQAGGSLRLSCAASGSTFTRYAMGWYRQAPGKERELVASISRSGNTYYADSVKGRFTISRDNAKNTVYLQMNSLKPEDTAVNYCAAKRKSYYSYNFDYWGQGTQVTVSS | high polyreactivity
10 | QVQLVESGGGLVQAGGSLRLSCAASGNIFRSYMGWYRQAPGKERELVASISRRGGSTYYADSVKGRFTISRDNAKNTVYLQMNSLKPEDTAVYYCARRWSWVNGVFGYYWGQGTQVTVSS | high polyreactivity
11 | QVQLVESGGGLVQEGGSLRLSCAASGNTFKYYSMGWYRQAPGKERELVAAITWNGARTYYADSVKGRFTISRDNAKNTVYLQMNSLKPEDTAVYYCNARQGYRFDYWGQGTQVTVSS | high polyreactivity
12 | QVQLVDSGGGLVQAGGSLRLSCAASGRIFPGKVMGWYRQAPGKERELVAAISSSGGSTYYADSVKGRFTISRDNAKNTVYLQMNSLKPEDTAVYYCAADSSDWPYDYWGQGTQVTVSS | low polyreactivity
13 | QVQLVESGGGLVQAGGSLRLSCAASGITFVRYAMGWYRQAPGKERELVAAISSGGRTIYADSVKGRFTISRDHANNTVFVHMNSLKPEDTAVYYCSKRRARSGQDYDYWGQGTQVTVSS | low polyreactivity
14 | QVQLVESGGGLVQAGGSLRLSCAASGRTFYRYAMGWYRQAPGKERELVAAITTSGGSTYYADSVKGRFTISRDNAKNTVYLQMNSLKPEDTSVYYCSATYYGYHIRDDYWGQGTQVTVSS | low polyreactivity
15 | QVQLVESGGGLVQAGGSLRLSCAASGSIFEWYAMGWYRQAPGKERELVADITNNGGSTYYADSVKGRFTISRDNAKNTVYLQMNSLKPEDTAVYYCAADYFDQVPDYYYASEYGYWGQGTQVTVSS | low polyreactivity
16 | QVQLVESGGGLVQAGGSLRLRCAASGFIFARYAMGWYRQAPGKERELVASITCRGTSTRYADSVKGRFTISRDNAKNTVYLEMNSLKPEDTAVYYCNAARLSYSWVPSEMDFWGQGTQVTVSS | high polyreactivity
17 | QVQLVESGGGLVQAGGSLRLSCAASGSTFFLYAMGWYRQAAGKERELVAAISVSGGSTRYADSVNGRFTISRDHAKNTVYLQMNSLKPEDTAVYYCAAASRLEYSHATLYYWGQGTQVTVSS | high polyreactivity
18 | QVQLVESGGGLVQAGGSLRLSCAASGSIFWFNAMGWYRQAPGKEREFVASISRSGGTTYYADSVKGRFTISRDNAKNTVYLQMNSLKPEDTAVYYCNARAYGNGLGTGYFGKHRYDYWGQGTQVTVSS | low polyreactivity
19 | QVQLVESGVGLVQAGGSLRLSCAASGRIFGFYAMGWYRQAPGKESELVAAITVSGSSTRYADSVKGRFTISRDIAKNTFYLQMNSLKPEDTGVYYCAAFNRCSGGFDYWGQGTQVTVSS | high polyreactivity
20 | QVQLVESGGGLVQAGGSLRLSCAASGITFSYNDMGWYRPAPGKEREFVATIRGSTARTYNADSVKGRFTISRDNAKNTVYLQMNSLKPEDTAVYYGAAGKYWYGYDYWGQGTQVTVSS | high polyreactivity
21 | QVQLVESGGGLVQAGGSLRLSCAASGRTFVGNAMGWYRQAPGKERELVATITRRGGSTYYADSVKGRFTISRDNAKNTVYLQMNSLKPEDTAVYYCAAGSQPGRKYYYWGQGTQVTVSS | high polyreactivity
22 | QVKLVESGGGLVQAGGSLRLSCADSGRIFYIYAMGWYRQSPGKERELVAAISSGGTTNYADSVKGRLTISRDNAKNTVYLQMNSLKPEDTAVYYCACYWRSRNRFYWGQGTQVTVSS | high polyreactivity
